From article PMC4599659

Columns and labels:
[1] = molecular target: P22 coat protein (bacteriophage P22) (UniProt P26747); test: SEC-MALS; P22-CYP VLPs from co-expression (pETDuet) in E. coli, purified; HPLC-MALS-RI on WTC-100S5 column, 50 mM phosphate pH 7.2, 100 mM NaCl, 200 ppm sodium azide; CYP-SP per capsid by Eq. 1 (capsid mass taken as 19,572 kDa, CYP-SP 71.5 kDa)
[2] = molecular target: P22 coat protein (bacteriophage P22) (UniProt P26747); test: SEC-MALS; P22-CYP VLPs from differential expression 1 (pBAD + pRSF; 0.2 % L-arabinose, then 0.5 mM IPTG) in E. coli, purified; HPLC-MALS-RI on WTC-100S5 column, 50 mM phosphate pH 7.2, 100 mM NaCl, 200 ppm sodium azide; CYP-SP per capsid by Eq. 1
[3] = molecular target: P22 coat protein (bacteriophage P22) (UniProt P26747); test: SEC-MALS; P22-CYP VLPs from differential expression 2 (pBAD + pRSF; 0.125 % L-arabinose, then 0.3 mM IPTG) in E. coli, purified; HPLC-MALS-RI on WTC-100S5 column, 50 mM phosphate pH 7.2, 100 mM NaCl, 200 ppm sodium azide; CYP-SP per capsid by Eq. 1

UniProt P26747, sequence (P26747 whole entry): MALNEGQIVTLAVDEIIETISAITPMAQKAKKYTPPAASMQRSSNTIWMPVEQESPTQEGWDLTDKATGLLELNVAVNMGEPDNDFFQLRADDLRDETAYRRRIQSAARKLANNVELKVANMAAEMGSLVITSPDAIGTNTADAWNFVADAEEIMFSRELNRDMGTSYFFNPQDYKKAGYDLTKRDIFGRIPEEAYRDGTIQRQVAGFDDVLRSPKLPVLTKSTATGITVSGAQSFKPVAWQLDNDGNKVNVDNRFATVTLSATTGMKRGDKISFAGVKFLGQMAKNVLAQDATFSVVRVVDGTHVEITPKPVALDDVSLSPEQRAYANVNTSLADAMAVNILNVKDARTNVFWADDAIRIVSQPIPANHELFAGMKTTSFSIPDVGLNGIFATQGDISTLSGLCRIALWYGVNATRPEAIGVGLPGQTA

Q: What does the source list for “CYPBM3 "21B3"-scaffold protein fusion (CYP-SP) (from UniProt P26748 141-303)”?
A: stoichiometry N [1]: 156 CYP/capsid; stoichiometry N [2]: 130 CYP/capsid; stoichiometry N [3]: 110 CYP/capsid
